Laboratory results: patent US6428579B1, “Implantable prosthetic devices coated with bioactive molecules” (Brown University Research Foundation, priority 1999, dated 2002)

Assay: Surface plasmon resonance of peptide adsorption on gold
Type: physicochemical
Details: best fit of SPR spectra, Fresnel theory
Description: Surface plasmon resonance (SPR) was produced when a beam of p-polarized laser light impinges onto the surface of a thin metal film. The light was coupled to the metal film through a prism which was mounted on a rotating turntable. At a particular angle of incidence the E-field of the laser light interacts with the surface bound free electrons of the metal film in such a way that a charge density wave was generated at the interface of the metal and air. This excitation results in a sharp reduction in the magnitude of the reflected light (measured with a photodiode). The angle at which this occurs together with the depth and half-width of the minimum were determined by the thickness and complex refractive index of the metal film. The magnitude of the evanescent field which arises from the charge density wave decays exponentially in the direction normal to the surface. […] By fitting the Fresnel equations, firstly to the date for the uncoated metal film, and then to the metal plus thin film, the thicknesses and complex refractive indices of the metal and peptide overlayer were determined. […] Another practical advantage of this method is that peptide chemistry can be determined in aqueous environments rather than the ultrahigh vacuums needed for other surface-sensitive techniques (e.g. ESCA). […]

Arg-Gly-Asp-Cys (RGDC; printed: Arg-Gly-Asp-Cys) [fibronectin related peptide, cysteine terminated]
Film thickness of peptide layer: 23-25 Å
